Laboratory results from the domain aggregation screens of Martell et al. (2025).

assay: soluble fraction after stress (log2 fold change); higher = more stays soluble; pooled small domains, quantitative proteomics; details: stress: 75 degC
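Note: 20 min heating vs room temperature control held 20 min.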

Row | Sequence | soluble fraction (log2)
1 | HMRGLLSQREHDVLDLVARGFSYGEIARLRSISVSTVQTHIKNLYRKLAVSSRTEAVYEAKQMGI | -1.63
2 | HMRGLVPEIVGTLEGEIRAGTLAVGQKLPTEAEIMARFDVSRTVVREALSRLQASDLVETRHGIGTFVSAR | -0.647
3 | HMRGPDLSKDFHEYISSQWMFFGRNAYQIAEQINKDTQLMSKYGKTTPSGVHYHIKQIQQEMEN | -0.785
4 | HMRGPPQVLVDVELEDGRVGQIGVRNGDDATELAETFVRAFRLEQSFVGRLANVIQGKIRELLHSQ | -1.74
5 | HMRGSRIFSGDVSPLTLPANSPFFSGYTEFKPGDVYVERSATNIAMWEWKSQPGGYTWVKTADIA | -1.27
6 | HMRGYGDRIRILRERAGITIEQLAERLGVAPYFIRRTELSEVYPTKPYIEALADVLNIDASYLARHI | -2.46
7 | HMRHYVLKENNGVIAIYKVNQENEAVFKENTQIQVQYLPEVDLINLKKGIYAIGEEKLNSILEDF | -0.667
8 | HMRIDSFEDARRRFEYDYLTRLLKLTQGSVTQAAKLAKRNRTEFYKLLQRHGIEAAHFKPTS | -1.53
9 | HMRIDVWLAENGFAPSRQKAQDLIAAGRVFQTDPSGRRQKVSKASAAVDPALSPKIEVIPDPE | -0.0608
10 | HMRILGIDPGYAITGYSIIDYVGNKFKLIDSGAVLTKAGVSFPLRLTKIYDDLSMIIDEYKPDA | 0.0296
11 | HMRIPANIAEDIKKLQKKEHHLHHHLGRDPFDDELAKELEWDTEQVSEIRQMIKNPELLEELLEAEREEE | 0.0316
12 | HMRITEQRRTLAKLFADTPGYLSPKDVYDYMGRFYPGLSFDTVYRNLRLLDELGVLEQVVFEDGVKFK | -0.847
13 | HMRIWTISDLYKNVEDKKVSLAVFSEDNDSNKVNVLDINGEEHSVNLLKADLPTLVDLFRKNDVRFAVRSN | -0.116
14 | HMRIWTPEMIKEYIISSNGKEPLNSHYYSTNHPSIYAAAERIFGSWGNAINAAGLDYNAIRKYK | -0.488
15 | HMRIYFSPSEIGFYHESDKQAYLLAGTWPNDLLEISEKWFLYLLEGQQKGKVITVNDYDQPVLVD | -2.9
16 | HMRIYTKDEYLAELSRYLHKLPQDDYESAMAYFREYFEEAGPENEAQAMRDLGTPKEAASEILQNLLH | -0.401
17 | HMRKDYTVLYSAVNAEEATEIVSKLQESGVAYQYKDNGDVLVDKKQVDKVRAQLAQEGYPKS | 0.0467
18 | HMRKIEDVLRLHAQGMSTRRIALATGVGKTTVIEYLRRAAVAGLSWPLPEGLDEEALERRVFPPPP | -2.59
19 | HMRKIFPFNPNFITDQRGYFLGMSTSEIDRLHHFRAANKWIQSAQEFQVVTKVSNAWLSEFSPYFNFP | -3.87
20 | HMRKKTYEIITDDLRRMIEAGLIRPGEKLGAIDQLAAKYRVGRSTVREALSHLKALGLVESRQGGGTYVTK | 0.375
21 | HMRKNVAGITPNVYGMGLKDAVYLLENAGYRVKVNGRGNVVRQSINSGTRIIKGQLIILDLD | -3.62
22 | HMRKSNADALDGKTGIVKEEIKTGGYGYVGIDGDMWRSISESGEAIPAGTKVVVISHESIILTVKPA | -2.23
23 | HMRKTLASTAYDSIKAGIVSGEINNNLLLSENTLAKILNMSRTPIREAIKRLEAESYLKSVDGVGLIVQE | -0.43
24 | HMRKTLSQEAYEKIKQNLEDGVYQGYINGRQVARDLDIGFTPVREAFLQLQSEGLIRKEDNVGYFV | -0.107
25 | HMRKTYHVDAYQDDKWWVLQVQEMPNAISQVKSLDQADEWIREAINIVSNEPEDSFDVVIIPV | -0.404
26 | HMRKVTDTHELSSVVKSVIDQWEEKAAEYRAGKSGLLGFFVGEVMKKTGGAADPEAAKSLLQDRLD | 0.0219

Row | Sequence | soluble fraction (log2)
27 | HMRKYEAVPASVVPAQIQEYVAKSNFPNQYIRKIERNKYTWEIELSNGLEIKFDRQFNVIGFD | -2.59
28 | HMRLGQLQSVEEPKFIEVHSGKQGDIGEQTIVEYEIDAKYATGDATINLKLLFRDGLFEIYNFNFSSEALL | 0.133
29 | HMRLNIRTKNNYSYYTIIKDYTNLNGKRTTTIFEKLGNQQQVEERFGKVNTIENIKKYIEELNNE | -1.65
30 | HMRLPAISYSFARKHGVVLRLDGDRPVASLREGADPAILIEVKRHLDGAMGVEKVSEAAFDQLLSTTYA | -1.53
31 | HMRLPNGYGSITKLSGKRRKPFMVRITTGYDNEGKQLMSVLGYYATRTEALAVLAEYNKNPYNPI | -3.36
32 | HMRLPNHYGSVVKLSGKRRRPFMVRGGVYGYDDRGYPQYVIVGYTETREQGLTMLAEYNRNP | -3.17
33 | HMRLPVELTDREVEVLRLLAQAMSNGEIARELYIGEATVKTHVSNVLQKLGARDRVAAVVWAHRYGL | -2.08
34 | HMRLSAADLQSYLKGMDYPASRQDLIAHARGHNAPEEAVATLEQFSDRTYRSAADVSVEFGRE | 0.254
35 | HMRLSPTMVETLIAMLNRNAYPAYENNSRTFASLEERGLIQPDIEGNWSLTDTGHQTALKLLK | 0.463
36 | HMRLSVRQRMSDVLGALKTQAFVEFTQLFRPQEGRMGVTVTFSAILELLREGLIEIVQSEPFAPIHVRAGA | 0.183
37 | HMRMDKHLWLSLLRLINEGSAEELQTKKDELLQSLERLRITRGPVRGDVLRVVRLIDEELVSRLHLDQR | -2.58
38 | HMRMTKPLPFDLAAFRNEFGFTKSIIMQEVGVSRHIYDNVERTNATPPEFYDDFVSFFQRHGQ | -1.88
39 | HMRMTPRQALDDLIREREETYAAVSRLLGRNTAYIQQYIKRGTPARLDQSDIAQLALHFDVPAKLLGGKE | -1.16
40 | HMRMTTEQLMSFLKQHFPQVADNFTVRISDEGRLSVEMPVNDKHLRPGGTVSGPSMFALADVAFYLAILQ | -1.56
41 | HMRNERDRQLYAAMEKLKAEYREALYLVYFENMSYRDAAAVMAQTEKQISNLVYRGKQSLKTILEQEGF | -2.6
42 | HMRNGGHTVYRNNGSLFIVVRDGDKLESVASEFRVSPKKLIKYNDLDIHSNVKTGDMIYIRPKA | -0.423
43 | HMRNLYEILGVSKDAPQGEIKSAYRKLAKTYHPDLNPNNEKAAELFKEINQAYEVLSDETKRRHYDQFGEA | 0.342
44 | HMRNMTDYLTIVRAVYGGLSQRQAATTYHVSRNTVSLLIRHAKNQGWLTVEDLSRADAAAFSPA | -0.393
45 | HMRNMVSVLDHIEGIGPKRRQLLYEHYGELEKIKEASVEEMAGLDGMNRPAAEAVYNFFLAQRNL | -0.247
46 | HMRNSSLQTDLELRAYVIDGLNHFWTPEEIAGRWSLAHPDRPVSFATIYRHIKRKLLPGIEPKTHLRRRGK | -2.54
47 | HMRPEARAASLSDEERKIFDYLAANGEKTIDNISVAVKMSAADILKNITLMSAKGLVYMPSAGRYGVKGN | -0.297
48 | HMRPNREKDMADLEKLAPFLLQMLTNYAQMTGDEKPLNAFITRFGYAAQIRDIQDFFMGPWHPA | ≥ 1.04
49 | HMRPQIAIDAIQALSLIMRTENKEDPTYLESRRVVSDAVAKRLSLNPTDLNRAWSRAPRDHQIAVLSALTQ | -1.34
50 | HMRPRGTRLPTGWTPSSDALDWTKAEKPGLDPLQTLEKFRDYWTAQPGQKGVKTDWDATWRNWVRREIP | -0.104
51 | HMRPSGTAGILRYLSSGAIRGIGATTAQRLVSEFGEKTLDVMENEPERVAMLKGISKSKAEDFSLQLKQS | -0.0414
52 | HMRPTAWEQVSRHIDQHGSIGNTEVRKAMETENVLAASKQIKKWLEQGLLIILNPTAGTRARRYSKPNM | -1.19

Row | Sequence | soluble fraction (log2)
53 | HMRPTDVLNYDESMRILNFSNNRVGFKHLMDAKGIEQVIFKNRKIGYRKSEILALKSELEAEQK | -0.958
54 | HMRPYAYGTGRRKSSTARVHLIPNGSGSITINGRTLDEYFGLETLKLIVRQPLAATETAEKFDVEATVV | -0.638
55 | HMRQDEKTLLYWIGAQVKREGKLIKTSTAQYLVEKTGTDMENLEKELEKLFAYTLDEKEITPAAIDEI | -1.77
56 | HMRQIRELFRLKFGSLLPTSDRQIAAQLGVARSTVAEYLERARAAGLSWPLPLDLSDADLEERLFA | -3.08
57 | HMRQMSEELQSAKEALEDRRTQEKAVLLLMEHRNISNDEAHRLLRKLAMDQGKRLPEVARALVSMAGVL | -0.319
58 | HMRQSKMREAILAAVSAQKLEISDLHVWRIGEQRYAAIIGLATTQAESVSALRDSLAQMDKLVHLTIDQ | -2.21
59 | HMRQTGWVTADSLNVRARPSLQAERVEKVTYGQQVQIMFKQGQWYQIATENGKIGWVSSEYIAAVSP | -2.4
60 | HMRRELDSEHKRQEILFAAKRLLLAEGYDATSMSRLAKEAGVAPNTLYWYFKDKDELLIAILDELVAE | -2.74
61 | HMRRGKLGMASRLEQIPGIGPKKRKALLKAFGNSIDAIKSAPVEDLMKVKGINLVLAESIKEL | -0.11
62 | HMRRMTEEQSKLFQGLVSIVQTTLVADMEKGAVTPLLIAEKVDFVADNLYPGKDIDRKEAVAELIRRFSLW | -1.67
63 | HMRRSKQERQQAIKTLISNEQIQRQEDLVRKLNEAGWEVTQATISRDITEMQLVKVPLPTGGFAYAVM | -0.0517
64 | HMRRSKVMLESILDEIPQMGQARRAALLEQFGSVAALRKASLAEIAMTPGIGEKIAVIIFEYLQKSSH | -1.69
65 | HMRRTEKEIEQDVMRAIATIISEKGISSVTIKEVSNLSKTDVIVLERRFKNDEGLIKAYTSQ | -1
66 | HMRSFADEGTVEEWIKQAIRENEAAVADYRKGKETAVKFLMGQVMRLSKGEANPADLEDKIKAKLD | 0.0142
67 | HMRSFGTVAQARGRWKAFYVGPDKRRHTPGVTFSNPIRAQGWLAQELTLIELGQWTPPAQRREKAEVAS | -2.26
68 | HMRSIVETLTDRELEIFQLIGNGFSTGEIARRLNLSPHTIETHRKNIKDKLGLSSGSELNKQAIQWVLSS | 0.244
69 | HMRSKTSYAVWTPIQIDAGSQMQALQSKGFNTVLMEGGISVGIRSDKAQAQALLNRLQGAGFTGQLREVN | -0.173
70 | HMRSLATFEEEKIALRFWNYLQSEGIKSTLEEEGPRDWVIWVIDEEKIPSATQSLEKFNLNPDDPAFSN | -0.784
71 | HMRSLVDRSVQAVTDHIRENALRVGDSLPGEAYFATSLGVSRAVMREAFGALAALRVIDVGNGRKPRVGAI | -0.687
72 | HMRSMEKRLTAKVKRVQEGVQAKSQAGEQPFEVVKLMQRFPKLMQFGKHAEAETVLDKALELLGEE | -0.0318
73 | HMRSQLALVVRTGESQRLDNFLVNNLAWKSRNRLQGLIREGLVTVNGEKTKASRRVHLDDLVEIHL | -1.31
74 | HMRSTIYEFTVPPGQLESIRLDVYITSFVENATRSKVQEAIKQGYVWVNGKHEKASYTMLPGDKIYIELPI | -2.65
75 | HMRSVEVAAEPGMVLEDRQTGFVGAVVAVEKSGGTHLVVLEDRHGLRRGFPLGPGFWLEGRPVVLAPPP | -1.01
76 | HMRTANREKRIEASVKMMKAGYPVGYIIARVFMYEGWEEDYRQLLIYLSEKIPKDVSNPITFEVIS | -0.622
77 | HMRTEGNLGAKVRVLRRSQGMTQAELARRLGISPSYLNLIEHNRRSFTADLLVKLAKILPVNLKT | -2.5
